Laboratory results reported in US20110020218A1 (PIERRE FABRE MEDICAMENT, published 2011).
Where a chain is given by its changes, count along the chain named. Names and notes keep the numbering of the source. Each block holds one binder with its values, some of them ahead of it.

Legend:
[1] = target: T1, human CXCR4 receptor (wild type) (human, UniProt P61073 1-352); assay: cell-based or functional assay
[2] = target: T1, human CXCR4 receptor (wild type); assay: SPA competition, Mab 100 nM, labelled competitor [125I]SDF-1 (1 nM), CHO-K1/human CXCR4 membranes
Description: CHO-K1 cells, stably and constitutively expressing human CXCR4 receptor were obtained upon transfection of naïve CHO-K¹ cells (ATCC CCL-61) with a mammalian expression vector carrying the whole coding sequence of human CXCR4 receptor (RefSeq NM_{—}003467). Cells were propagated in complete culture medium [DMEM-Ham's F12 supplemented with 5% fetal calf serum (FCS) and 500 μg/ml of geneticin]. Radioligand binding experiments were conducted on cell membranes obtained upon mechanical scrapping of CHO/CXCR4 cells in lysis buffer [Hepes 20 mM, pH 7.4, NaCl 150 mM] followed by centrifugation (10000 g, 15 min). […] Upon centrifugation [1000 g for 10 min.] radioactive counts were measured in a scintillation counter (TopCount, Perkin Elmer).

[3] = target: T2, CXCR2:YFP fusion protein (UniProt P25025 1-360); assay: BRET in transiently transfected HEK293 cells
T2 construct: whole, on cells; Transiently expressed in HEK293 cells for BRET; not shown: Yellow fluorescent protein (EYFP)
T2 sequence (looked up): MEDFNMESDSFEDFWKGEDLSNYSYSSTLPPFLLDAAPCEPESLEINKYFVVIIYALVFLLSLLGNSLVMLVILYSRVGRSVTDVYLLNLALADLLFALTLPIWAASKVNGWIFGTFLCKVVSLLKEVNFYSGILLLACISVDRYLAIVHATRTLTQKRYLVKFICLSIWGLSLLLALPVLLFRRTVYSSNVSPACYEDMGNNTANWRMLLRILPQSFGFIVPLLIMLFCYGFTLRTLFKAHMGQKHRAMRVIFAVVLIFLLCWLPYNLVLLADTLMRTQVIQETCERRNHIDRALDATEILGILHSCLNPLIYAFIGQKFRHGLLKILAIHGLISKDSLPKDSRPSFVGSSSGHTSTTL

[4] = target: T1, human CXCR4 receptor (wild type); assay: flow cytometry competition with biotinylated murine 515H7 on CXCR4 transfected NIH3T3 cells

IC50, [35S]GTPγS binding, Hela cells, SDF-1 10 nM [1]: 0.5 nM
IC50, [35S]GTPγS binding, NIH3T3/CXCR4 cells, SDF-1 10 nM [1]: 1.6 nM
inhibition of SDF-1-induced BRET increase (CXCR4 homo-dimers) [1]: 63%
inhibition of SDF-1-induced β-arrestin recruitment (BRET) [1]: ~20%
B1: anti-CXCR4 Mab 414H5 (antibody, V domains shown)
VH: EVKLVESGGGLVQPGGSLRLSCTTSGFTFTDYYMSWVRQSPGKALEWLTFIRNKANGYTTEYSASVKGRFTISRDNSQSILYLQMNTLRAEDSATYYCARDIPGFAYWGQGTLVTVSA
VL: DIVMSQSPSSLAVSAGEKVTMSCKSSQSLYNSRTRKNYLAWYQQKPGQSPKLLIYWASTRESGVPDRFTGSGSGTDFTLTITSVQAEDLAVFYCKQSYNLRTFGGGTKLEIK

IC50, [35S]GTPγS binding, Hela cells, SDF-1 10 nM [1]: 0.3 nM
IC50, [35S]GTPγS binding, NIH3T3/CXCR4 cells, SDF-1 10 nM [1]: 1.1 nM
decrease in SDF-1-induced U937 cells migration [1]: ~50%
inhibition of SDF-1-induced BRET increase (CXCR4 homo-dimers) [1]: 75%
inhibition of SDF-1-induced β-arrestin recruitment (BRET) [1]: ~63%
% inhibition of [125I]SDF-1 [2]: 21%
B2: anti-CXCR4 chimeric Mab c414H5 (antibody, human IgG1, kappa, V domains shown)
VH: B1 VH
VL: DIVMSQSPSSLAVSAGEKVTMSCKSSQSLYNSRTRKNYLAWYQQKPGQSPKLLIYWASTRESGVPDRFTGSGSGTDFTLTITSVQAEDLAVFYCKQSYNLRTFGGGTKLEIKR
notes: they may be whole chains; also called chimeric 414H5

% of inhibition of [35S]GTPγS binding stimulated by SDF-1 (100 nM) [1]: 71%
IC50, [35S]GTPγS binding, Hela cells, SDF-1 10 nM [1]: 0.2 nM
IC50, [35S]GTPγS binding, NIH3T3/CXCR4 cells, SDF-1 10 nM [1]: 1.9 nM
decrease in SDF-1-induced U937 cells migration [1]: > 80%
inhibition of SDF-1-induced BRET increase (CXCR4 homo-dimers) [1]: 69%
inhibition of SDF-1-induced β-arrestin recruitment (BRET) [1]: 95%
B3: anti-CXCR4 Mab 515H7 (antibody, V domains shown)
VH: EVNLVESGGGLVQPGGSLRLSCATSGFTFTDNYMSWVRQPPGKALEWLGFIRNKANGYTTDYSASVRGRFTISRDNSQSILYLQMNALRAEDSATYYCARDVGSNYFDYWGQGTTLTVSS
VL: DIVMSQSPSSLAVSAGEKVTMSCKSSQSLFNSRTRKNYLAWYQQKPGQSPKLLIYWASARDSGVPARFTGSGSETYFTLTISRVQAEDLAVYYCMQSFNLRTFGGGTKLEIK

binding result [3]: binds
B4: CXCR4/Rluc fusion protein (receptor, UniProt P61073 1-352, looked up)
chain: MEGISIYTSDNYTEEMGSGDYDSMKEPCFREENANFNKIFLPTIYSIIFLTGIVGNGLVILVMGYQKKLRSMTDKYRLHLSVADLLFVITLPFWAVDAVANWYFGNFLCKAVHVIYTVNLYSSVLILAFISLDRYLAIVHATNSQRPRKLLAEKVVYVGVWIPALLLTIPDFIFANVSEADDRYICDRFYPNDLWVVVFQFQHIMVGLILPGIVILSCYCIIISKLSHSKGHQKRKALKTTVILILAFFACWLPYYIGISIDSFILLEIIKQGCEFENTVHKWISITEALAFFHCCLNPILYAFLGAKFKTSAQHALTSVSRGSSLKILSKGKRGGHSSVSTESESSSFHSS
notes: whole, on cells; Transiently expressed in HEK293 cells for BRET; also called CXCR4 tagged with luciferase; not shown: Renilla reniformis luciferase (Rluc)

% of inhibition of [35S]GTPγS binding stimulated by SDF-1 (100 nM) [1]: 86%
IC50, [35S]GTPγS binding, NIH3T3/CXCR4 cells [1]: 3.86 nM
inhibition of SDF-1-induced β-arrestin recruitment (BRET) [1]: ~94%
percentage of inhibition of SDF-1-induced BRET increase (CXCR4 homo-dimers) [1]: ~88%
B5: humanized antibody Hz515H7 VH1 D76N VL2 (antibody, human IgG1, kappa, V domains shown)
VH: EVQLVESGGGLVQPGRSLRLSCTASGFTFTDNYMSWVRQAPGKGLEWVGFIRNKANGYTTEYAASVKGRFTISRDNSKSIAYLQMNSLKTEDTAVYYCARDVGSNYFDYWGQGTLVTVSS
VL: DIVMTQSPSSLAVSLGERATMSCKSSQSLFNSRTRKNYLAWYQQKPGQSPKLLIYWASARDSGVPARFTGSGSETYFTLTISRVQAEDLAVYYCMQSFNLRTFGQGTKVEIKR

% of inhibition of [35S]GTPγS binding stimulated by SDF-1 (100 nM) [1]: 71%
IC50, [35S]GTPγS binding, Hela cells, SDF-1 10 nM [1]: 0.6 nM
IC50, [35S]GTPγS binding, NIH3T3/CXCR4 cells, SDF-1 10 nM [1]: 1.5 nM
decrease in SDF-1-induced U937 cells migration [1]: > 80%
inhibition of SDF-1-induced BRET increase (CXCR4 homo-dimers) [1]: 96%
inhibition of SDF-1-induced β-arrestin recruitment (BRET) [1]: 93%
% inhibition of [125I]SDF-1 [2]: 55%
B6: anti-CXCR4 chimeric Mab c515H7 (antibody, human IgG1, kappa, V domains shown)
VH: B3 VH
VL: B5 VL with T5S, L15A, R18K, A19V, Q105G, V109L
notes: they may be whole chains; also called chimeric 515H7

binding result [4]: binds
B7: humanized antibody Hz515H7 VH1 VL1 (antibody, human IgG1, kappa, V domains shown)
VH: B5 VH with N76D
VL: DIVMTQSPDSLAVSLGERATINCKSSQSLFNSRTRKNYLAWYQQKPGQPPKLLIYWASTRESGVPDRFSGSGSGTDFTLTISSLQAEDVAVYYCMQSFNLRTFGQGTKVEIKR
notes: Human IgG1/kappa format; no back mutations; also called 515H7 VH variant 1 VL variant 1

binding result [4]: binds
B8: hz515H7 VH1 VL2 (antibody, human IgG1, kappa)
heavy: not shown
light: DIVMTQSPSSLAVSLGERATMSCKSSQSLFNSRTRKNYLAWYQQKPGQSPKLLIYWASARDSGVPARFTGSGSETYFTLTISRVQAEDLAVYYCMQSFNLRTFGQGTKVEIKRTVAAPSVFIFPPSDEQLKSGTASVVCLLNNFYPREAKVQWKVDNALQSGNSQESVTEQDSKDSTYSLSSTLTLSKADYEKHKVYACEVTHQGLSSPVTKSFNRGEC
notes: human IgG1/kappa format; also called VH variant 1 combined with variant 2 of VL

% of inhibition of [35S]GTPγS binding stimulated by SDF-1 (100 nM) [1]: 66%
IC50, [35S]GTPγS binding, NIH3T3/CXCR4 cells [1]: 5.19 nM
inhibition of SDF-1-induced β-arrestin recruitment (BRET) [1]: ~82%
percentage of inhibition of SDF-1-induced BRET increase (CXCR4 homo-dimers) [1]: ~33%
B9: humanized antibody Hz515H7 VH1 D76N VL2.2 (antibody, human IgG1, kappa, V domains shown)
VH: B5 VH
VL: B5 VL with S9D, S49P, A66D, L89V

% of inhibition of [35S]GTPγS binding stimulated by SDF-1 (100 nM) [1]: 58%
IC50, [35S]GTPγS binding, NIH3T3/CXCR4 cells [1]: 8.5 nM
inhibition of SDF-1-induced β-arrestin recruitment (BRET) [1]: ~71%
percentage of inhibition of SDF-1-induced BRET increase (CXCR4 homo-dimers) [1]: ~21%
B10: humanized antibody Hz515H7 VH1 D76N VL2.3 (antibody, human IgG1, kappa, V domains shown)
VH: B5 VH
VL: B5 VL with S9D, S49P, A66D, R83S, V84L

% of inhibition of [35S]GTPγS binding stimulated by SDF-1 (100 nM) [1]: 69%
IC50, [35S]GTPγS binding, NIH3T3/CXCR4 cells [1]: 4.05 nM
inhibition of SDF-1-induced β-arrestin recruitment (BRET) [1]: ~81%
percentage of inhibition of SDF-1-induced BRET increase (CXCR4 homo-dimers) [1]: ~65%
B11: humanized antibody Hz515H7 VH1 D76N VL2.1 (antibody, human IgG1, kappa, V domains shown)
VH: B5 VH
VL: B5 VL with S9D, S49P, A66D, T69S

binding result [4]: binds
B12: hz515H7 VH1 combined with the chimeric VL (cVL) (antibody, human IgG1, kappa)
heavy: not shown
VL: B8 light with T5S, L15A, R18K, A19V, Q105G, V109L
notes: Humanized VH variant with the chimeric (murine VL, human Ckappa) light chain of c515H7; IgG1/kappa; also called VH1 cVL
